Bridges are numbered along the chain shown (N, C = ends). Where no end group is shown, it is not given here. [ ]: non-standard residue; d: D form. Lac = C[C@H](O)C(=O)O
How the values were obtained:
Neutravidin [1] = molecular target: T1, Neutravidin (Gallus gallus, UniProt P02701); test: Screening simulation by the Mondorf-Carbonell radiological procedure with 14C-radiolabeled Neutravidin; format: binding; conditions: 10 mg of 50:50 mix of ligand resin and negative control resin, PBS, 5% 14C-radiolabeled Neutravidin, washed with PBS 0.2M NaCl 0.1% Tween 20, film five days
Description: A solid phase library of reversible cyclic peptides synthesized as explained in sections 5.2 and 5.3 can be screened for on-bead ligands that bind to a target biological. […] The selected beads are then subjected to the alkaline treatment reported in section 5.7. See Mondorf and Carbonell 1998.
Neutravidin was radiolabeled according to the procedure reported by Mondorf et al. using ^14C formaldehyde by reductive amination. The prospected extent of radiolabeling was 5%. Mondorf Carbonell 1998.
Two aliquots of cyclo[Lac-A-DRASPY-E]-HMBA-ChemMatrix resin and cyclo[Lac-A-VVWVV-E]-HMBA-ChemMatrix (SEQ ID NO:20-21) resin and were mixed in a 50:50 proportion. 10 mg of the resin mix was swollen in 20% methanol in water for 30 min and then rinsed with PBS, pH 7.4 (3×5 min). The resin slur was then mixed with 200 μl of 5 mg/mL ^14C-labelled Neutravidin. After 2 hrs of incubation the supernatant was decanted and the resin was washed with PBS buffer containing 0.2M NaCl and 0.1% (w/v) Tween 20 until the radioactivity reached the baseline level. […]
(§1) The screening procedure followed the method set forth in sections 5.5 and 6.5. […] A volume of 250 mL of washing solution was necessary in order for the radioactivity to reach the baseline level. […] In both cases, the difference between the levels of radioactivity carried by the resin was enough to discriminate the ligand resin beads from the negative control beads.

Neutravidin [2] = molecular target: T1, Neutravidin; test: Chromatographic comparison of cyclic depsipeptide and cyclic peptide resins on column; conditions: Toyopearl resin column, binding PBS pH 7.4, elution 0.2M Glycine pH 2.5, absorbance 280 nm
Method: Thirty-five milligrams of cyclo[Lac-A-DRASPY-E]-Toyopearl resin and cyclo[A-A-DRASPY-E]-Toyopearl (SEQ ID NO:21, 29) resin were packed in a 30 mm×2.1 mm I.D. Microbore column (0.1 mL) and swollen with 20% v/v methanol. One hundred microliters of feed sample, namely Neutravidin 5 mg/mL in PBS pH 7.4, was loaded onto the column at a flow rate of 0.05 mL/min (87 cm/h). The column was washed with 2 mL of equilibration buffer at a flow rate of 0.2 mL/min (348 cm/h). Elution was then performed with 4 mL of 0.2M glycine buffer pH 2.5 at the flow rate of 0.4 mL/min (696 cm/h). Cleaning and regeneration were performed by 4 mL of 0.85% phosphoric acid. The effluent was monitored by absorbance at 280 nm. Fractions were collected and concentrated five times by centrifugation at 4° C., 20817×g for 30 min using an Amicon® Ultra centrifugal filter (3000 MWCO, Ultracel®, Millipore, Billerica, Mass., USA).
Cyclic depsipeptides are present in nature as very selective ligands and enzyme substrates. In many cases, however, the depside (ester) bond is found to play an active role in their biological activity and the homodetic cyclic peptide version of the same sequence can partially or completely loose the target affinity. […]

Neutravidin [3] = molecular target: T2, Neutravidin (UniProt P02701 25-152); test: radiological on-bead screening (autoradiography of beads in agarose)
T2 construct: In the bead screening it was radiolabelled with 14C formaldehyde by reductive amination (prospected extent 5%); In the column runs it was unlabelled, 5 mg/mL in PBS pH 7.4; also called 14C-labelled Neutravidin; target protein
Method: Two aliquots of cyclo[Lac-A-DRASPY-E]-HMBA-ChemMatrix resin and cyclo[Lac-A-VVWVV-E]-HMBA-ChemMatrix (SEQ ID NO:20-21) resin and were mixed in a 50:50 proportion. 10 mg of the resin mix was swollen in 20% methanol in water for 30 min and then rinsed with PBS, pH 7.4 (3×5 min). The resin slur was then mixed with 200 μl of 5 mg/mL ¹⁴C-labelled Neutravidin. After 2 hrs of incubation the supernatant was decanted and the resin was washed with PBS buffer containing 0.2M NaCl and 0.1% (w/v) Tween 20 until the radioactivity reached the baseline level. The washed resin was then mixed with 20 mL of 1% low melting agarose solution. The mixture was swirled to form a uniform suspension and then the slurry was poured on 16×18 cm gelbond film to form a monolayer of beads. This gel was air-dried overnight in a hood. The dried agarose gel was then exposed to photographic film for 5 days at room temperature. The photographic film was then developed, the dark spot located on the film and the corresponding beads selected.
as §1

T1 sequence (P02701 25-152): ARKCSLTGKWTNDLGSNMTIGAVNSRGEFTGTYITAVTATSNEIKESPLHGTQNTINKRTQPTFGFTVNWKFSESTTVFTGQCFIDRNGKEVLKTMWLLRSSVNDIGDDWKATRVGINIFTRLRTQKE
T2 sequence (P02701 25-152): as above

binding chromatogram, cyclic depsipeptide vs cyclic peptide version of the same ligand sequence (FIG. 35) (Neutravidin [2]) | Molecule | amount of radiolabeled target protein bound by resin beads (dark spot on developed radiographic film) (Neutravidin [1]) | other results
 | cyclo[Lac-A-DRASPY-E] [cyclo[Lac-A-DRASPY-E]-HMBA-ChemMatrix] | bound a sufficient amount of radiolabeled target protein to impress a dark spot | 
no difference | cyclo[Lac-A-DRASPY-E] [cyclo[Lac-A-DRASPY-E]-Toyopearl] |  | 
 | cyclo[Lac-A-VVWVV-E] ([Lac]AVVWVVE; bridge N-8; not fully specified (C-terminus, bridges); printed as cyclo[Lac-A-VVWVV-E]) [cyclo[Lac-A-VVWVV-E]-HMBA-ChemMatrix] | bound a sufficient amount of radiolabeled target protein to impress a dark spot | 
no difference | cyclo[A-A-DRASPY-E] (AADRASPYE-{Toyopearl AF‑Amino‑650M resin}; lactam N-9; not fully specified; printed as cyclo[A-A-DRASPY-E]) [cyclo[A-A-DRASPY-E]-Toyopearl, homodetic cyclic peptide analogue of DRASPY depsipeptide on Toyopearl resin] |  | 
 | [Lac]AVVWVVE (bridge N-8; not fully specified (C-terminus, bridges); printed as cyclo[Lac-A-VVWVV-E], also called cyclo[Lac-A-VVWVV-E]-HMBA-ChemMatrix; negative control resin) [cyclo[Lac-A-VVWVV-E]] |  | binding result (Neutravidin [3]): no binding

— US20130310265A1, “METHODS OF PREPARING CYCLIC PEPTIDES AND USES THEREOF” (NORTH CAROLINA STATE UNIVERSITY, priority 2012, published 2013)
